This is an account of results in patent US20200277396A1.

The target in assay [1] is human CD83, cell surface, on lymphoma cells (human) (UniProt Q01151). Briefly: flow cytometry, HB15a-FITC on L428 cells, gate placed right of the grey isotype control histogram. A general note: Flow cytometry measures light scatter and fluorescence of single cells or particles in a stream.
Assay [2] shares this target. The assay is described as follows: flow cytometry, HB15a-FITC on HDLM2 cells, gate placed right of the grey isotype control histogram.
For assay [3] the target is unchanged. The assay is described as follows: flow cytometry, HB15a-FITC on KM-H2 cells, gate placed right of the grey isotype control histogram.
For assay [4] the target is unchanged. Briefly: flow cytometry, HB15e-FITC on L428 cells, gate placed right of the grey isotype control histogram.
Assay [5] shares this target. Briefly: flow cytometry, HB15e-FITC on HDLM2 cells, gate placed right of the grey isotype control histogram.
For assay [6] the target is unchanged. The assay is described as follows: flow cytometry, HB15e-FITC on KM-H2 cells, gate placed right of the grey isotype control histogram.

Sequence of UniProt Q01151 (Q01151 20-205): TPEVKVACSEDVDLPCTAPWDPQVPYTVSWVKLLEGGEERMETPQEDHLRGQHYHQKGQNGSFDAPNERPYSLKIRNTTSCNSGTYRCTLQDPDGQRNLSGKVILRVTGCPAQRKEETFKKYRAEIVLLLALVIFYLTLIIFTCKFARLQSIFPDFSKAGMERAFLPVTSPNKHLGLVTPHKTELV

Take “HB15a, mouse anti-human CD83 monoclonal antibody (Beckman and Coulter)”: the positive gate (percent of cells in the gate) was determined as 27.2 in assay [1], 14.7 in assay [2] and 99.5 in assay [3].
Turning to “HB15e, mouse anti-human CD83 monoclonal antibody (BD Biosciences)”, the positive gate (percent of cells in the gate) came out at 60 in assay [4], 32.5 in assay [5] and 99 in assay [6].
